# Assay results reported in article doi:10.1101/2024.03.08.584184.
# B1: 70bp Oligo 2 (dsDNA)
# DNA 1: GGCAAGCAGGCCTTCTCATGCGTATATCAACGTGTCCGTTTGAGATATCAGTGTTCTCTTTCCCGGTTAA
# DNA 2: TTAACCGGGAAAGAGAACACTGATATCTCAAACGGACACGTTGATATACGCATGAGAAGGCCTGCTTGCC
# Molecular target: cGAS (Homo sapiens, UniProt Q8N884 1-522)
# Assay: EMSA
# Sequence of cGAS (Q8N884 whole entry): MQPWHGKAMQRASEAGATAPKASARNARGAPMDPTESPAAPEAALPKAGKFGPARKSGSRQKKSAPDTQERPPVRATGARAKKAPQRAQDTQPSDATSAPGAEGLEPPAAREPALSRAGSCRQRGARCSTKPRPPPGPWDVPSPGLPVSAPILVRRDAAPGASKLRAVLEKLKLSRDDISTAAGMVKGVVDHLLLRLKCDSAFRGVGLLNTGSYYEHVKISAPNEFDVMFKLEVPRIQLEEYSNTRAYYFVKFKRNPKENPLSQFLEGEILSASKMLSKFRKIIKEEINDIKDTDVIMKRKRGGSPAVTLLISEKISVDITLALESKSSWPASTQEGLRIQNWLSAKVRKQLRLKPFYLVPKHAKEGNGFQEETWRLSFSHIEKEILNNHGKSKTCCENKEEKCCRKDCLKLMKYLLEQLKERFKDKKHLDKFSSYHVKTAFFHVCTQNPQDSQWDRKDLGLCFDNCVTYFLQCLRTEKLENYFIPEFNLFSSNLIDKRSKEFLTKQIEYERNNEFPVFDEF
binder,measurement,value
B1,binding result,binds
